# Experimental data reported in US12180485B2, “Repressible control of gene expression” (TRUSTEES OF BOSTON UNIVERSITY, priority 2020, dated 2024).
# B1: SEQ ID NO: 814: inducible system polypeptide, probably Table 20 (GID-GAI) (protein)
# chain: MIEKKKSFAKGMGVKSTLVSGSKVYMTTFAEGSDARLEKIVEGDSIRSVNEGEAFSAEMADKNAGYKIGNAKFSHPKGYAVVANNPLYTGPVQQDMLGLKETLEKRYFGESADGNDNICIQVIHNILDIEKILAEYITNAAYAVNNISGLDKDIIGFGKFSTVYTYDEFKDPEHHRAAFNNNDKLINAIKAQYDEFDNFLDNPRLGYFGQAFFSKEGRNYIINYGNECYDILALLSGLRHWVVHNNEEESRISRTWLYNLDKNLDNEYISTLNYLYDRITNELTNSFSKNSAANVNYIAETLGINPAEFAEQYFRFSIMKEQKNLGFNITKLREVMLDRKDMSEIRKNHKVFDSIRTKVYTMMDFVIYRYYIEEDAKVAAANKSLPDNEKSLSEKDIFVINLRGSFNDDQKDALYYDEANRIWRKLENIMHNIKEFRGNKTREYKKKDAPRLPRILPAGRDVSAFSKLMYALTMFLDGKEINDLLTTLINKFDNIQSFLKVMPLIGVNSGGSGSGSSGGSGTMKRDHHHHHHQDKKTMMMNEEDDGNGMDELLAVLGYKVRSSEMADVAQKLEQLEVMMSNVQEDDLSQLATETVHYNPAELYTWLDSMLTDLNPKKKRKV
# B2: SEQ ID NO: 813: inducible system polypeptide, probably Table 20 (GID-GAI) (protein)
# chain: MAASDEVNLIESRTVVPLNTWVLISNFKVAYNILRRPDGTFNRHLAEYLDRKVTANANPVDGVFSFDVLIDRRINLLSRVYRPAYADQEQPPSILDLEKPVDGDIVPVILFFHGGSFAHSSANSAIYDTLCRRLVGLCKCVVVSVNYRRAPENPYPCAYDDGWIALNWVNSRSWLKSKKDSKVHIFLAGDSSGGNIAHNVALRAGESGIDVLGNILLNPMFGGNERTESEKSLDGKYFVTVRDRDWYWKAFLPEGEDREHPACNPFSPRGKSLEGVSFPKSLVVVAGLDLIRDWQLAYAEGLKKAGQEVKLMHLEKATVGFYLLPNNNHFHNVMDEISAFVNAECSGGSGSGSSGGSGTAKFVEEYAFFKDSAKIADELRLIKSFARMGEPIADARRAMYIDAIRILGTNLSYDELKALADTFSLDENGNKLKKGKHGMRNFIINNVISNKRFHYLIRYGDPAHLHEIAKNEAVVKFVLGRIADIQKKQGQNGKNQIDRYYETCIGKDKGKSVSEKVDALTKIITGMNYDQFDKKRSVIEDTGRENAEREKFKKIISLYLTVIYHILKNIVNINARYVIGFHCVERDAQLYKEKGYDINLKKLEEKGFSSVTKLCAGIDETAPDKRKDVEKEMAERAKESIDSLESANPKLYANYIKYSDEKKAEEFTRQINREKAKTALNAYLRNTKWNVIIREDLLRIDNKTCTLFRNKAVHLEVARYVHAYINDIAEVNSYFQLYHYIMQRIIMNERYEKSSGKVSEYFDAVNDEKKYNDRLLKLLCVPFGYCIPRFKNLSIEALFDRNEAAKFDKEKKKVSGNSGSGPKKKRKVPKKKRKV
# B3: SEQ ID NO: 1206: inducible system polypeptide, probably Table 22 (reader and repressible protease) (protein)
# chain: MAPKKKRKVGIHGVPAASSDEEEARELIERAKEAAERAQEAAERTGDPRVRELARELKRLAQEAAEEVKRDPSSSDVNEALKLIVEAIEAAVDALEAAERTGDPEVRELARELVRLAVEAAEEVQRNPSSSDVNEALHSIVYAIEAAIFALEAAERTGDPEVRELARELVRLAVEAAEEVQRNPSSRNVEHALMRIVLAIYLAEENLREAEESGDPEKREKARERVREAVERAEEVQRDPSGWLNHSGGSGSGSSGGSGTAKFVEEYAFFKDSAKIADELRLIKSFARMGEPIADARRAMYIDAIRILGTNLSYDELKALADTFSLDENGNKLKKGKHGMRNFIINNVISNKRFHYLIRYGDPAHLHEIAKNEAVVKFVLGRIADIQKKQGQNGKNQIDRYYETCIGKDKGKSVSEKVDALTKIITGMNYDQFDKKRSVIEDTGRENAEREKFKKIISLYLTVIYHILKNIVNINARYVIGFHCVERDAQLYKEKGYDINLKKLEEKGFSSVTKLCAGIDETAPDKRKDVEKEMAERAKESIDSLESANPKLYANYIKYSDEKKAEEFTRQINREKAKTALNAYLRNTKWNVIIREDLLRIDNKTCTLFRNKAVHLEVARYVHAYINDIAEVNSYFQLYHYIMQRIIMNERYEKSSGKVSEYFDAVNDEKKYNDRLLKLLCVPFGYCIPRFKNLSIEALFDRNEAAKFDKEKKKVSGNSGSGPKKKRKV
# B4: SEQ ID NO: 392: PV1-Cas13 N507-L1-PYL-NLS-BGHpA (protein)
# chain: MIEKKKSFAKGMGVKSTLVSGSKVYMTTFAEGSDARLEKIVEGDSIRSVNEGEAFSAEMADKNAGYKIGNAKFSHPKGYAVVANNPLYTGPVQQDMLGLKETLEKRYFGESADGNDNICIQVIHNILDIEKILAEYITNAAYAVNNISGLDKDIIGFGKFSTVYTYDEFKDPEHHRAAFNNNDKLINAIKAQYDEFDNFLDNPRLGYFGQAFFSKEGRNYIINYGNECYDILALLSGLRHWVVHNNEEESRISRTWLYNLDKNLDNEYISTLNYLYDRITNELTNSFSKNSAANVNYIAETLGINPAEFAEQYFRFSIMKEQKNLGFNITKLREVMLDRKDMSEIRKNHKVFDSIRTKVYTMMDFVIYRYYIEEDAKVAAANKSLPDNEKSLSEKDIFVINLRGSFNDDQKDALYYDEANRIWRKLENIMHNIKEFRGNKTREYKKKDAPRLPRILPAGRDVSAFSKLMYALTMFLDGKEINDLLTTLINKFDNIQSFLKVMPLIGVNSGGSGSGSSGGSGTAPTQDEFTQLSQSIAEFHTYQLGNGRCSSLLAQRIHAPPETVWSVVRRFDRPQIYKHFIKSCNVSEDFEMRVGCTRDVNVISGLPANTSRERLDLLDDDRRVTGFSITGGEHRLRNYKSVTTVHRFEKEEEEERIWTVVLESYVVDVPEGNSEEDTRLFADTVIRLNLQKLASITEAMNYPYDVPDYAPKKKRKV
# B5: SEQ ID NO: 810: inducible system polypeptide, probably Table 20 (GID-GAI) (protein)
# chain: MIEKKKSFAKGMGVKSTLVSGSKVYMTTFAEGSDARLEKIVEGDSIRSVNEGEAFSAEMADKNAGYKIGNAKFSHPKGYAVVANNPLYTGPVQQDMLGLKETLEKRYFGESADGNDNICIQVIHNILDIEKILAEYITNAAYAVNNISGLDKDIIGFGKFSTVYTYDEFKDPEHHRAAFNNNDKLINAIKAQYDEFDNFLDNPRLGYFGQAFFSKEGRNYIINYGNECYDILALLSGLRHWVVHNNEEESRISRTWLYNLDKNLDNEYISTLNYLYDRITNELTNSFSKNSAANVNYIAETLGINPAEFAEQYFRFSIMKEQKNLGFNITKLREVMLDRKDMSEIRKNHKVFDSIRTKVYTMMDFVIYRYYIEEDAKVAAANKSLPDNEKSLSEKDIFVINLRGSFNDDQKDALYYDEANRIWRKLENIMHNIKEFRGNKTREYKKKDAPRLPRILPAGRDVSAFSKLMYALTMFLDGKEINDLLTTLINKFDNIQSFLKVMPLIGVNAKFVEEYAFFKDSAKIADELRLIKSFARMGEPIADARRAMYIDAIRILGTNLSGGSGSGSSGGSGTMKRDHHHHHHQDKKTMMMNEEDDGNGMDELLAVLGYKVRSSEMADVAQKLEQLEVMMSNVQEDDLSQLATETVHYNPAELYTWLDSMLTDLNPKKKRKV
# B6: SEQ ID NO: 391: PV1-ABI-L1-Cas13-508C-BGHpA (protein)
# chain: MPLYGFTSICGRRPEMEDAVSTIPRFLQSSSGSMLDGRFDPQSAAHFFGVYDGHGGSQVANYCRERMHLALAEEIAKEKPMLCDGDTWLEKWKKALFNSFLRVDSEIGSVAPETVGSTSVVAVVFPSHIFVANCGDSRAVLCRGKTALPLSVDHKPDREDEAARIEAAGGKVIQWNGARVFGVLAMSRSIGDRYLKPSIIPDPEVTAVKRVKEDDCLILASDGVWDVMTDEEACEMARKRILLWHKKNAVAGDASLLADERRKEGKDPAAMSAAEYLSKLAIQRGSKDNISVVVVDLKDYKDDDDKSGGSGSGSSGGSGTAKFVEEYAFFKDSAKIADELRLIKSFARMGEPIADARRAMYIDAIRILGTNLSYDELKALADTFSLDENGNKLKKGKHGMRNFIINNVISNKRFHYLIRYGDPAHLHEIAKNEAVVKFVLGRIADIQKKQGQNGKNQIDRYYETCIGKDKGKSVSEKVDALTKIITGMNYDQFDKKRSVIEDTGRENAEREKFKKIISLYLTVIYHILKNIVNINARYVIGFHCVERDAQLYKEKGYDINLKKLEEKGFSSVTKLCAGIDETAPDKRKDVEKEMAERAKESIDSLESANPKLYANYIKYSDEKKAEEFTRQINREKAKTALNAYLRNTKWNVIIREDLLRIDNKTCTLFRNKAVHLEVARYVHAYINDIAEVNSYFQLYHYIMQRIIMNERYEKSSGKVSEYFDAVNDEKKYNDRLLKLLCVPFGYCIPRFKNLSIEALFDRNEAAKFDKEKKKVSGNSGSGPKKKRKVPKKKRKV
# Test system: mCherry expression in HEK293 FT cells
# Assay: Inducible split RfxCas13d (GIB, RAP, ABA, Dano, GRZ CID domains; NES/NLS variants) mCherry knockdown, leakiness and inducibility
# Type: cell-based
# Conditions: inducible polypeptide systems of Tables 18-22
# Excerpt: FIG. 6A-6C is a series of schematics and graphs showing that split RfxCas13d's reconstituted and functioned to knockdown mCherry expression in HEK293 FT cells FIG. 6A is a schematic showing split sites selected throughout RfxCas13d sequence. FIG. 6B is a bar graph showing mCherry expression under 4 conditions for gibberellin-inducible, rapalog-inducible, and abscisic acid-inducible inducible split Cas13d designs. In FIG. 6B and FIG. 6C, the left-right order of the bars for each split site is the same as the left-right order of the legend for each bar graph.
# FIG. 7A-7E is a series of schematics and graphs showing a functional and inducible split Cas13d design. FIG. 7A is a bar graph showing additional split sites selected in RfxCas13d and tested with GIB CID domains. […] In FIG. 7A and FIG. 7C, the left-right order of the bars for each split site is the same as the left-right order of the legend. FIG. 7B is a schematic showing the design to compartmentalize splits. Compartmentalizing moieties facilitates the reduction of leakiness. […] FIG. 7D is a schematic showing the experiment flow for testing reversibility of the inducible split Cas13d's.
# FIG. 8A-8B is a series of schematics and graphs showing that split RfxCas13d's reconstituted upon drug-induced dimerization and knocked down mCherry expression in HEK293 FT cells. FIG. 8A is a bar graph showing quantification of system performance. The left-right order of the bars for each split site is the same as the top-down order of the legend. […] System performance in leakiness score (left axis) and induced activity (right axis) by GIB, RAP, ABA, and Dano-inducible split Cas13d designs.
# FIG. 10A-10B is a series of schematics and graphs showing performance optimization through separating split Cas13d moieties in different cellular compartments. […] The left-right order of the bars for each bar graph is the same as the top-down order of the legend.
# FIG. 11 is a series of schematics and graphs showing the testing of reversed orientation (dark grey dots) of CID domains with respect to split Cas13d pieces against original orientations (light grey dots) designed for GIB, ABA, Dano, and GRZ inducible systems.
row,Molecule,performance in the tested conditions
1,B1,highest performance
2,B2,highest performance
3,B3,highest performance
4,B4,highest performance
5,B5,highest performance
6,B6,highest performance
